Laboratory results taken from PMC6663966.

Assays:
Assay in all cases: purified protein
Conditions in all cases: HEPES buffer supplemented with zinc; room temperature
[1] = tested on: CO/N=C(\C(=O)N[C@@H]1C(=O)N2C(C(=O)O)=C(COC(C)=O)CS[C@H]12)c1csc(N)n1
[2] = tested on: C[C@@H](O)[C@H]1C(=O)N2C(C(=O)O)=C(S[C@@H]3CN[C@H](C(=O)Nc4cccc(C(=O)O)c4)C3)[C@H](C)[C@H]12
[3] = tested on: CO/N=C(\C(=O)N[C@@H]1C(=O)N2C(C(=O)[O-])=C(C[N+]3(C)CCCC3)CS[C@H]12)c1csc(N)n1
[4] = tested on: CCN1CCN(C(=O)N[C@@H](C(=O)N[C@@H]2C(=O)N3[C@@H]2SC(C)(C)[C@@H]3C(=O)O)c2ccccc2)C(=O)C1=O
[5] = tested on: CC(=O)OCC1=C(C(=O)O)N2C(=O)[C@@H](NC(=O)Cc3cccs3)[C@H]2SC1
[6] = tested on: C[C@H]1[C@H](NC(=O)/C(=N\OC(C)(C)C(=O)O)c2csc(N)n2)C(=O)N1S(=O)(=O)O
[7] = tested on: CO[C@@]1(NC(=O)Cc2cccs2)C(=O)N2C(C(=O)O)=C(COC(N)=O)CS[C@@H]21
[8] = tested on: CC(C)(O/N=C(\C(=O)N[C@@H]1C(=O)N2C(C(=O)[O-])=C(C[n+]3ccccc3)CS[C@H]12)c1csc(N)n1)C(=O)O
[9] = tested on: C[C@@H](O)[C@H]1C(=O)N2C(C(=O)O)=C(SCCN=CN)C[C@H]12
[10] = tested on: C[C@@H](O)[C@H]1C(=O)N2C(C(=O)O)=C(S[C@@H]3CN[C@H](C(=O)N(C)C)C3)[C@H](C)[C@H]12
[11] = tested on: CC1(C)S[C@@H]2[C@H](NC(=O)Cc3ccccc3)C(=O)N2[C@H]1C(=O)O

PAN-1 (Pseudobacteriovorax antillogorgiicola)
Km [1]: 245.7 µM
kcat [1]: 3.9 s⁻¹
kcat/Km [1]: 16000 M⁻¹ s⁻¹
Km [2]: 368.5 µM
kcat [2]: 2.9 s⁻¹
kcat/Km [2]: 7800 M⁻¹ s⁻¹
kcat [3]: < 0.01 s⁻¹
Km [4]: 1074.2 µM
kcat [4]: 73.6 s⁻¹
kcat/Km [4]: 68000 M⁻¹ s⁻¹
Km [5]: 32.2 µM
kcat [5]: 6.9 s⁻¹
kcat/Km [5]: 214000 M⁻¹ s⁻¹
kcat [6]: < 0.01 s⁻¹
Km [7]: 13.3 µM
kcat [7]: 1.9 s⁻¹
kcat/Km [7]: 143000 M⁻¹ s⁻¹
Km [8]: 144.4 µM
kcat [8]: 8.1 s⁻¹
kcat/Km [8]: 56000 M⁻¹ s⁻¹
Km [9]: 470.5 µM
kcat [9]: 43.8 s⁻¹
kcat/Km [9]: 93100 M⁻¹ s⁻¹
Km [10]: 386 µM
kcat [10]: 22.9 s⁻¹
kcat/Km [10]: 59000 M⁻¹ s⁻¹
Km [11]: 161 µM
kcat [11]: 23.6 s⁻¹
kcat/Km [11]: 146000 M⁻¹ s⁻¹
